# Results published in patent US20250041387A1 (BEIJING STOMATOLOGICAL HOSPITAL CAPITAL MEDICAL UNIVERSITY, published 2025).
# Target: WD repeat domain 5 (WDR5), human, endogenous in human mesenchymal stem cells (human, UniProt P61964 2-334)
# Experiment: Co-IP with HA antibody, stem cells from apical papilla overexpressing HA-KDM6B
# Description: On the next day, the cells were added with Protein A/G beads and rotated on a rotary shaker at 4° C. for 2 hours. […] All cells were incubated overnight to form a complex of protein-antibody-agarose bead. […] (2) Grouping: Input group (loading amount of 25 μg); antibody group (loading amount of 800 μg, 2 μg of antibody); IgG group (loading amount of 800 μg, 2 μg of antibody). Samples were diluted with lysate. […] (3) Preparation of protein A/G beads
binder,measurement,value
"HA-KDM6B (full-length KDM6B with HA tag, overexpressed in stem cells from apical papilla) (enzyme, whole, on cells; Full-length protein expressed inside human SCAPs and pulled down from lysate with HA antibody; also called PQCXIN-HA-KDM6B; SCAPs-HA-KDM6B; not shown: HA tag) MHRAVDPPGARAAREAFALGGLSCAGAWSSCPPHPPPRSAWLPGGRCSASIGQPPLPAPLPPSHGSSSGHPSKPYYAPGAPTPRPLHGKLESLHGCVQALLREPAQPGLWEQLGQLYESEHDSEEATRCYHSALRYGGSFAELGPRIGRLQQAQLWNFHTGSCQHRAKVLPPLEQVWNLLHLEHKRNYGAKRGGPPVKRAAEPPVVQPVPPAALSGPSGEEGLSPGGKRRRGCNSEQTGLPPGLPLPPPPLPPPPPPPPPPPPPLPGLATSPPFQLTKPGLWSTLHGDAWGPERKGSAPPERQEQRHSLPHPYPYPAPAYTAHPPGHRLVPAAPPGPGPRPPGAESHGCLPATRPPGSDLRESRVQRSRMDSSVSPAATTACVPYAPSRPPGLPGTTTSSSSSSSSNTGLRGVEPNPGIPGADHYQTPALEVSHHGRLGPSAHSSRKPFLGAPAATPHLSLPPGPSSPPPPPCPRLLRPPPPPAWLKGPACRAAREDGEILEELFFGTEGPPRPAPPPLPHREGFLGPPASRFSVGTQDSHTPPTPPTPTTSSSNSNSGSHSSSPAGPVSFPPPPYLARSIDPLPRPPSPAQNPQDPPLVPLTLALPPAPPSSCHQNTSGSFRRPESPRPRVSFPKTPEVGPGPPPGPLSKAPQPVPPGVGELPARGPRLFDFPPTPLEDQFEEPAEFKILPDGLANIMKMLDESIRKEEEQQQHEAGVAPQPPLKEPFASLQSPFPTDTAPTTTAPAVAVTTTTTTTTTTTATQEEEKKPPPALPPPPPLAKFPPPSQPQPPPPPPPSPASLLKSLASVLEGQKYCYRGTGAAVSTRPGPLPTTQYSPGPPSGATALPPTSAAPSAQGSPQPSASSSSQFSTSGGPWARERRAGEEPVPGPMTPTQPPPPLSLPPARSESEVLEEISRACETLVERVGRSATDPADPVDTAEPADSGTERLLPPAQAKEEAGGVAAVSGSCKRRQKEHQKEHRRHRRACKDSVGRRPREGRAKAKAKVPKEKSRRVLGNLDLQSEEIQGREKSRPDLGGASKAKPPTAPAPPSAPAPSAQPTPPSASVPGKKAREEAPGPPGVSRADMLKLRSLSEGPPKELKIRLIKVESGDKETFIASEVEERRLRMADLTISHCAADVVRASRNAKVKGKFRESYLSPAQSVKPKINTEEKLPREKLNPPTPSIYLESKRDAFSPVLLQFCTDPRNPITVIRGLAGSLRLNLGLFSTKTLVEASGEHTVEVRTQVQQPSDENWDLTGTRQIWPCESSRSHTTIAKYAQYQASSFQESLQEEKESEDEESEEPDSTTGTPPSSAPDPKNHHIIKFGTNIDLSDAKRWKPQLQELLKLPAFMRVTSTGNMLSHVGHTILGMNTVQLYMKVPGSRTPGHQENNNFCSVNINIGPGDCEWFAVHEHYWETISAFCDRHGVDYLTGSWWPILDDLYASNIPVYRFVQRPGDLVWINAGTVHWVQATGWCNNIAWNVGPLTAYQYQLALERYEWNEVKNVKSIVPMIHVSWNVARTVKISDPDLFKMIKFCLLQSMKHCQVQRESLVRAGKKIAYQGRVKDEPAYYCNECDVEVFNILFVTSENGSRNTYLVHCEGCARRRSAGLQGVVVLEQYRTEELAQAYDAFTLAPASTSR",binding result,binds
